The test system of the series is chimeric ADAR1-dsRBD3/Xlrbpa-dsRBD2 (Homo sapiens / Xenopus laevis?). As to the kind of experiment: ITC. To be noted: N = 3.05 ± 0.31; ITC: 25 mM Na-phosphate pH 7.0, 100 mM NaCl, 2 mM 2-mercaptoethanol, 25 °C; 2.25 uM dsRNA in cell, 80 uM protein in syringe.

By Kd is commonly meant the free concentration of one partner at which half of the binding sites on the other are occupied at equilibrium, for simple one-to-one binding. Low readings indicate higher affinity, high ones lower affinity. Turning to “GGGAUCAAUAUGCUAAGCGAUCCC / GGGAUCGCUUAGCAUAUUGAUCCC [24 bp dsRNA duplex]”, the Kd amounted to 500 nM.

Values taken from publication PMC11582362.
